Reference: publication PMC4522956, “Unsaturated fatty acids as high-affinity ligands of the C-terminal Per-ARNT-Sim domain from the Hypoxia-inducible factor 3α” (Scientific Reports, 2015)

Target: T1, HIF-1β PASb labeled with FITC (human (cDNA library from the breast …, UniProt P27540 349-467, FITC (fluorescein isothiocyanate) label, sites not stated))
T1 construct: HIF-1β (ARNT), PASb domain, Pro349-Ser467 of UniProt P27540; Same construct as m2, labeled with a 20-fold molar excess of FITC in borate buffer pH 8.5; also called PASb-1β labeled with FITC; PASb-1β; source: E. coli Rosetta-2, purified (TALON, MonoQ, Superdex 75), then labeled with FITC; not shown: 6xHis, N-terminal, cleaved
Test: fluorescence polarisation; unlabeled PASb-1α or PASb-3α serially diluted 1:2 from about 1 mM, mixed with FITC-labeled PASb-1β at 20 nM final; 30 mM Hepes pH 7.5, 150 mM NaCl, 0.5 mM TCEP; room temperature; triplicate
Details: both partners purified

T1 sequence (P27540 349-467): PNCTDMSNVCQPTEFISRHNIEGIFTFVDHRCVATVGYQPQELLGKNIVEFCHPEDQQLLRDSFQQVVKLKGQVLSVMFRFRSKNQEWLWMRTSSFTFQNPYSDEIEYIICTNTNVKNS

- binding result: binds
B1: HIF-1α PASb (domain or fragment)
chain: not shown
notes: Hypoxia-inducible factor 1α, PASb domain, Asp238-His348 of UniProt Q16665; Cloned NdeI/XhoI into pET28a; residues of the vector probably remain at the N-terminus after thrombin cleavage (surmise); also called PASb-1α; source: E. coli Rosetta-2, purified (TALON, MonoQ, Superdex 75); not shown: 6xHis, N-terminal, cleaved
